Test results as given in patent publication US20080254026A1 (published 2008).
Blank lines part the entries; values can stand above or below the binder they belong to.

Legend:
[1] = biological target: T1, CD40 extracellular Domain 2 GST fusion protein (human, UniProt P25942 61-104); experiment: western blot of CD40 Domain 2, reduced
T1 construct: Expressed in insect cells with a GP67 secretion signal; not shown: glutathione S-transferase (GST) fusion partner
T1 chain: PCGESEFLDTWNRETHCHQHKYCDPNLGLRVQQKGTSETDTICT

[2] = biological target: T2, CD40 extracellular Domain 3 GST fusion protein (human, UniProt P25942 104-144); experiment: western blot of CD40 domain GST fusion proteins
T2 construct: Expressed in insect cells with a GP67 secretion signal; not shown: glutathione S-transferase (GST) fusion partner
T2 chain: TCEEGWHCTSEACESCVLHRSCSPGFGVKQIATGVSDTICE
Procedure: (§1) To map the antigenic region on CD40, the four extracellular domains of CD40 were cloned and expressed in insect cells as GST fusion proteins. The secretion of the four domains was ensured with a GP67 secretion signal. Insect cell supernatant was analyzed by SDS-PAGE and western blot analysis to identify the domain containing the epitope.

[3] = biological target: T3, CD40 extracellular Domain 4 GST fusion protein (human, UniProt P25942 145-187); experiment: western blot of CD40 domain GST fusion proteins
T3 construct: Expressed in insect cells with a GP67 secretion signal; not shown: glutathione S-transferase (GST) fusion partner
T3 chain: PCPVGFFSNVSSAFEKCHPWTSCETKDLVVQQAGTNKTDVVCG
Procedure: as §1

[4] = biological target: T4, CD40 extracellular Domain 1 GST fusion protein (human); experiment: western blot of CD40 domain GST fusion proteins
T4 construct: Expressed in insect cells with a GP67 secretion signal; not shown: glutathione S-transferase (GST) fusion partner
T4 chain: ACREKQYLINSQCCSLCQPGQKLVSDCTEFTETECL
Procedure: as §1

[5] = biological target: T5, CD40 Domain 2 10-mer peptide YCDPNLGLRV (spot 22) (human); experiment: SPOTs membrane of 10-mer peptides, spot 22 listed as recognised
T5 construct: Synthetic 10-mer on a SPOTs membrane (Sigma)
T5 peptide: YCDPNLGLRV
Excerpt: (§2) SPOTs membranes (Sigma) containing thirty-five 10 mer peptides with a 1-amino-acid offset were generated.

[6] = biological target: T6, CD40 Domain 2 10-mer peptide KYCDPNLGLR (spot 21) (human); experiment: SPOTs membrane of 10-mer peptides, spot 21 listed as recognised
T6 construct: Synthetic 10-mer on a SPOTs membrane (Sigma)
T6 peptide: KYCDPNLGLR
Excerpt: as §2

[7] = biological target: T7, CD40 Domain 2 10-mer peptide HKYCDPNLGL (spot 20) (human); experiment: SPOTs membrane of 10-mer peptides, spot 20 listed as recognised
T7 construct: Synthetic 10-mer on a SPOTs membrane (Sigma)
T7 peptide: HKYCDPNLGL
Excerpt: as §2

[8] = biological target: T8, SPOTs peptide, spot 20 (HKYCDPNLGL) (human); experiment: SPOTs peptide membrane, stripped and reprobed
T8 peptide: HKYCDPNLGL
Excerpt: as §2

[9] = biological target: T9, SPOTs peptide, spot 22 (YCDPNLGLRV) (human); experiment: SPOTs peptide membrane, stripped and reprobed
T9 peptide: YCDPNLGLRV
Excerpt: as §2

[10] = biological target: T10, SPOTs peptide, spot 21 (KYCDPNLGLR) (human); experiment: SPOTs peptide membrane, stripped and reprobed
T10 peptide: KYCDPNLGLR
Excerpt: as §2

[11] = biological target: T11, CD40 extracellular Domain 1 GST fusion protein (human); experiment: SDS-PAGE and Western blot of insect cell supernatant with GST domain fusions
T11 construct: Expressed in insect cells with a GP67 secretion signal; not shown: GST fusion partner
T11 chain: T4 chain
Procedure: as §1

[12] = biological target: T12, CD40 extracellular Domain 4 GST fusion protein (human, UniProt P25942 145-187); experiment: as above
T12 construct: not shown: GST fusion partner
T12 chain: T3 chain
Procedure: as §1

[13] = biological target: T13, CD40 extracellular Domain 3 GST fusion protein (human, UniProt P25942 104-144); experiment: as above
T13 construct: not shown: GST fusion partner
T13 chain: T2 chain
Procedure: as §1

[14] = biological target: T14, Recombinant soluble CD40-his (human, UniProt P25942 21-193); experiment: Biacore, antibody captured on protein A CM5 chip, CD40-his as analyte, 1:1 model/global fit
T14 construct: Analyte in the Biacore experiments; not shown: his tag
Procedure: (§3) Protein A was immobilized onto CM5 biosensor chips via amine coupling. Human anti-CD40 monoclonal antibodies, at 1.5 μg/ml, were captured onto the modified biosensor surface for 1.5 minutes at 10 μl/min. Recombinant soluble CD40-his was flowed over the biosensor surface at varying concentrations. Antibody and antigen were diluted in 0.01 M HEPES pH 7.4, 0.15 M NaCl, 3 mM EDTA, 0.005% Surfactant P20 (HBS-EP). Kinetic and affinity constants were determined using the Biaevaluation software with a 1:1 interaction model/global fit.

[15] = biological target: T14, Recombinant soluble CD40-his; experiment: Biacore
Procedure: as §3

[16] = biological target: T15, CD40 extracellular Domain 2 GST fusion protein (human, UniProt P25942 61-104); experiment: Western blot of GST domain fusions
T15 construct: Expressed in insect cells with a GP67 secretion signal; not shown: GST fusion partner
T15 chain: T1 chain

[17] = biological target: human CD40 on normal human B cells (PBMC or purified B cells) (human, UniProt P25942 20-277); experiment: cell-based or functional assay
[18] = biological target: T16, CD40 Domain 2 SPOTs peptide, spot 18 (HQHKYCDPNL) (human); experiment: SPOTs membrane of 10mer peptides of CD40 Domain 2; spot 18 listed among the results
T16 construct: 10mer synthesized on a SPOTs membrane; also called Spot Number 18
T16 peptide: HQHKYCDPNL
Excerpt: as §2

[19] = biological target: T17, CD40 Domain 2 SPOTs peptide, spot 19 (QHKYCDPNLG) (human); experiment: SPOTs membrane of 10mer peptides of CD40 Domain 2; spot 19 listed among the results
T17 construct: 10mer synthesized on a SPOTs membrane; also called Spot Number 19
T17 peptide: QHKYCDPNLG
Excerpt: as §2

[20] = biological target: T18, CD40 Domain 2 SPOTs peptide, spot 21 (KYCDPNLGLR) (human); experiment: SPOTs membrane of 10mer peptides of CD40 Domain 2; spot 21 listed among the results
T18 construct: 10mer synthesized on a SPOTs membrane; also called Spot Number 21
T18 peptide: KYCDPNLGLR
Excerpt: as §2

[21] = biological target: T19, CD40 Domain 2 SPOTs peptide, spot 22 (YCDPNLGLRV) (human); experiment: SPOTs membrane of 10mer peptides of CD40 Domain 2; spot 22 listed among the results
T19 construct: 10mer synthesized on a SPOTs membrane; also called Spot Number 22
T19 peptide: YCDPNLGLRV
Excerpt: as §2

[22] = biological target: T1, CD40 extracellular Domain 2 GST fusion …; experiment: western blot of CD40 domain GST fusion proteins (Domain 2)
Procedure: as §1

[23] = biological target: T20, CD40 Domain 2 SPOTs peptide, spot 20 (HKYCDPNLGL) (human); experiment: SPOTs membrane of 10mer peptides of CD40 Domain 2; spot 20 listed among the results
T20 construct: 10mer synthesized on a SPOTs membrane; also called Spot Number 20
T20 peptide: HKYCDPNLGL
Excerpt: as §2

[24] = biological target: human CD40 antigen expressed on the surface of cells (human, UniProt P25942 20-277); experiment: cell-based or functional assay
[25] = biological target: T8, SPOTs peptide, spot 20 (HKYCDPNLGL); experiment: SPOTs peptide membrane, antibody at 10 µg/ml
Excerpt: as §2

[26] = biological target: T9, SPOTs peptide, spot 22 (YCDPNLGLRV); experiment: SPOTs peptide membrane, antibody at 10 µg/ml
Excerpt: as §2

[27] = biological target: T21, SPOTs peptide, spot 19 (QHKYCDPNLG) (human); experiment: SPOTs peptide membrane, antibody at 10 µg/ml
T21 peptide: QHKYCDPNLG
Excerpt: as §2

[28] = biological target: T22, SPOTs peptide, spot 18 (HQHKYCDPNL) (human); experiment: SPOTs peptide membrane, antibody at 10 µg/ml
T22 peptide: HQHKYCDPNL
Excerpt: as §2

[29] = biological target: T10, SPOTs peptide, spot 21 (KYCDPNLGLR); experiment: SPOTs peptide membrane, antibody at 10 µg/ml
Excerpt: as §2

Chain of human CD40 on normal human B cells (PBMC or purified B cells) (P25942 20-277): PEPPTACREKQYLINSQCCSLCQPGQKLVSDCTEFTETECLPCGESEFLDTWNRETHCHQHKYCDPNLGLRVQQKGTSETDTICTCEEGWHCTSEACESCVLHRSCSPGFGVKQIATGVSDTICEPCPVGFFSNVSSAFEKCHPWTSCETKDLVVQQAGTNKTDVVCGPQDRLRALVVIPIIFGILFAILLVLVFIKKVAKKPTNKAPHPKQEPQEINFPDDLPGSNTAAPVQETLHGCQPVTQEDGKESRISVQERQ
T14 sequence (P25942 21-193 limits assumed): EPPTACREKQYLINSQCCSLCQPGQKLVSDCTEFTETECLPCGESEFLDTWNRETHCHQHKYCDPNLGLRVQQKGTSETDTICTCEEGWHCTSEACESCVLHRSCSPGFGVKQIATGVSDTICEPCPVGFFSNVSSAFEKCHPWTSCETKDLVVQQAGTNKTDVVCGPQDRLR
Chain of human CD40 antigen expressed on the surface of cells (P25942 20-277): as the sequence (P25942 20-277) above

B1: monoclonal antibody CHIR-5.9 (antibody, human IgG1, kappa)
heavy: not shown
light: AIVMTQPPLSSPVTLGQPASISCRSSQSLVHSDGNTYLNWLQQRPGQPPRLLIYKFFRRLSGVPDRFSGSGAGTDFTLKISRVEAEDVGVYYCMQVTQFPHTFGQGTRLEIKRTVAAPSVFIFPPSDEQLKSGTASVVCLLNNFYPREAKVQWKVDNALQSGNSQESVTEQDSKDSTYSLSSTLTLSKADYEKHKVYACEVTHQGLSSPVTKSFNRGEC
notes: Fully human IgG1 kappa anti-CD40 antibody; Leader residues (1-19 heavy, 1-20 light) left out as stated; also called mAb CHIR-5.9; CHIR-5.9/5.11
- binding result [1]: binds
- binding result [2]: no binding
- binding result [3]: no binding
- binding result [4]: no binding

B2: monoclonal antibody CHIR-5.9 (antibody, human IgG1, kappa)
light: B1 light
heavy: not shown
notes: Fully human IgG1 kappa anti-CD40 antibody; also called mAb CHIR-5.9
- binding result [5]: binds
- binding result [6]: binds
- binding result [7]: binds

B3: monoclonal antibody CHIR-5.9 (antibody, human IgG1, kappa)
light: B1 light
heavy: not shown
notes: also called mAb 5.9
- binding result [8]: binds
- binding result [9]: binds
- binding result [10]: binds
- binding result [11]: no binding
- binding result [12]: no binding
- binding result [13]: no binding
- Kd [14]: 12.2 nM
- Kd [15]: 12 nM
- binding result [16]: binds

The next lines start with the values.

- IC50(nM) for inhibition of CD40L-induced PBMC proliferation; PBMC-025 Donor#1 [17]: 24.2 nM
- IC50(nM) for inhibition of CD40L-induced PBMC proliferation; PBMC-025 Donor#2 [17]: 66 nM
- IC50(nM) for inhibition of CD40L-induced PBMC proliferation; PBMC-026 Donor#1 [17]: 45 nM
- IC50(nM) for inhibition of CD40L-induced PBMC proliferation; PBMC-026 Donor#2 [17]: 84 nM
- IC50(nM) for inhibition of CD40L-induced PBMC proliferation; PBMC-028 Donor#1 [17]: 30.1 nM
- IC50(nM) for inhibition of CD40L-induced PBMC proliferation; PBMC-028 Donor#2 [17]: 34.7 nM
- IC50(nM) for inhibition of CD40L-induced PBMC proliferation; PBMC-029 Donor#1 [17]: 28.1 nM
- IC50(nM) for inhibition of CD40L-induced PBMC proliferation; PBMC-029 Donor#2 [17]: 55.4 nM
- IC50(nM) for inhibition of CD40L-induced PBMC proliferation; PBMC-030 Donor#1 [17]: 35.5 nM
- IC50(nM) for inhibition of CD40L-induced PBMC proliferation; PBMC-030 Donor#2 [17]: 103 nM
- IC50(nM) for inhibition of CD40L-induced PBMC proliferation; PBMC-032 Donor#1 [17]: 40.4 nM
- average IC50(nM) for inhibition of CD40L-induced PBMC proliferation [17]: 49.6 nM
B4: monoclonal antibody CHIR-12.12 (antibody, human IgG1, kappa)
heavy: not shown
light: DIVMTQSPLSLTVTPGEPASISCRSSQSLLYSNGYNYLDWYLQKPGQSPQVLISLGSNRASGVPDRFSGSGSGTDFTLKISRVEAEDVGVYYCMQARQTPFTFGPGTKVDIRRTVAAPSVFIFPPSDEQLKSGTASVVCLLNNFYPREAKVQWKVDNALQSGNSQESVTEQDSKDSTYSLSSTLTLSKADYEKHKVYACEVTHQGLSSPVTKSFNRGEC

- binding result [18]: binds
- binding result [19]: binds
- binding result [20]: binds
- binding result [21]: binds
- binding result [22]: binds
- binding result [2]: no binding
- binding result [3]: no binding
- binding result [4]: no binding
- binding result [23]: binds
B5: monoclonal antibody CHIR-12.12 (antibody, human IgG1, kappa)
heavy: not shown
light: B4 light
notes: Fully human IgG1 kappa anti-CD40 antibody; Leader residues (1-19 heavy, 1-20 light) left out as stated

- IC50: antibody concentration to inhibit 50% of CD-40 ligand-induced lymphocyte proliferation, average of 6 donors [24]: 0.047 nM
- binding result [11]: no binding
- binding result [12]: no binding
- binding result [13]: no binding
- Kd [14]: 0.51 nM
- Kd [15]: 0.5 nM
- binding result [25]: binds
- binding result [26]: binds
- binding result [27]: binds
- binding result [28]: binds
- binding result [29]: binds
- binding result [16]: binds
B6: monoclonal antibody CHIR-12.12 (antibody, human IgG1, kappa)
light: B4 light
heavy: not shown
